According to paper PMC6589562:

Target: spoke HSP40 (His-tagged recombinant HSP40) (Chlamydomonas reinhardtii)
Assay: AUC

“spoke HSP40 (His-tagged recombinant HSP40) (natural protein)” showed a stoichiometry N of 2.
